B1: Pistol ribozyme (parent)
chain: GGGUCGUUGUUCCAUAAUCGCGUGGAUAUGGCACGCAAGUUUCUACCGGGCACCGUAAAUGUCCGACUGGAGCCGUUCGGGCGGCUAUAAACAGACCUCAGGCCCGAAGCGUGGCGGCACCUGCCGCCGGUGGUAAAAAAGAUCGGAAGAGCACACGUCU

Variants of: B1
Test: aptazyme ON/OFF ratio, guanine; higher = stronger switching; co-transcriptional cleavage with and without guanine

| Variant | aptazyme ON/OFF ratio |
| --- | --- |
| U7G G9A U10A U11G C12G | 1.13 |
| U7G G9A U10A U11G C12U | 1.24 |
| U7G G9A U10A U11G C12A | 1.13 |
| U7C U11G C13U | 1.03 |
| U7C U11G C13G | 1.03 |
| U7C U11G C13A | 1.06 |
| U7G G9A U10A U11G C12U C13A | 1.07 |
| U7G G9A U10A U11G C12U C13U | 1.11 |
| U7G G9A U10A U11G C12U C13G | 1.09 |
| U7C U10G U11G C12G C13G | 0.991 |
| U7C U10G U11G C12G C13A | 1.1 |
| U7C U10G U11G C12G C13U | 1.16 |
| U7C U10G U11G C12A C13A | 1.13 |
| U7C U10G U11G C12A C13G | 1.16 |
| U7C U10G U11G C12A C13U | 1.26 |
| U7C U11C C12G C13G | 1.29 |
| U7C U11C C12G C13A | 1.21 |
| U7C U11C C12G C13U | 1.22 |
| U7G G9A C12G C13G | 1.1 |
| U7G G9A C12G C13U | 1.18 |
| U7G G9A C12G C13A | 1.13 |

| Variant | aptazyme ON/OFF ratio |
| --- | --- |
| U7C U11A C13G | 1.04 |
| U7C U11A C13U | 1.23 |
| U7C U11A C13A | 1.21 |
| U7G C12U C13U | 1.36 |
| U7G C12U C13G | 1.21 |
| U7G C12U C13A | 1.21 |
| U7G G9A U10A U11C C12G C13A | 1.1 |
| U7G G9A U10A U11C C12G C13G | 1.1 |
| U7G G9A U10A U11C C12G C13U | 1.18 |
| U7C U10G U11G | 1.23 |
| U7G G9A U10A C12A C13G | 1.14 |
| U7G G9A U10A C12A C13U | 1.28 |
| U7G G9A U10A C12A C13A | 1.06 |
| U7C U11A C12A C13U | 1.28 |
| U7C U11A C12A C13G | 1.25 |
| U7C U11A C12A C13A | 1.23 |
| U7C U11C C13G | 1.05 |
| U7C U11C C13A | 1.15 |
| U7C U11C C13U | 1.13 |
| U7G G9A | 4.35 |
| U7G C13U | 1.09 |

| Variant | aptazyme ON/OFF ratio |
| --- | --- |
| U7G C13A | 1.08 |
| U7G C13G | 1.05 |
| U7G G9A C12A | 1.25 |
| U7G G9A C12U | 1.41 |
| U7G G9A C12G | 1.2 |
| U7C U10G U11G C12U | 1.21 |
| U7C U10G U11G C12A | 1.2 |
| U7C U10G U11G C12G | 1.22 |
| U7G G9A U10A U11A C13U | 1.2 |
| U7G G9A U10A U11A C13G | 1.09 |
| U7G G9A U10A U11A C13A | 1.14 |
| U7C U11A C12A | 1.51 |
| U7C U11A C12U | 1.18 |
| U7C U11A C12G | 1.21 |
| U7C U11C C12A C13G | 1.28 |
| U7C U11C C12A C13U | 1.25 |
| U7C U11C C12A C13A | 1.27 |
| U7G G9A U10A U11G C12A C13A | 1.05 |
| U7G G9A U10A U11G C12A C13U | 1.12 |
| U7G G9A U10A U11G C12A C13G | 1.08 |
| U7G C12A C13G | 1.11 |

| Variant | aptazyme ON/OFF ratio |
| --- | --- |
| U7G C12A C13A | 1.22 |
| U7G C12A C13U | 1.21 |
| U7C U11G C12A C13A | 1.16 |
| U7C U11G C12A C13G | 1.17 |
| U7C U11G C12A C13U | 1.17 |
| U7G G9A U10A U11C C12G | 1.22 |
| U7G G9A U10A U11C C12A | 1.24 |
| U7G G9A U10A U11C C12U | 1.05 |
| U7C U11A C12G C13U | 1.07 |
| U7C U11A C12G C13A | 1.11 |
| U7C U11A C12G C13G | 1.16 |
| U7G G9A U10A U11C C13G | 1.08 |
| U7G G9A U10A U11C C13A | 1.09 |
| U7G G9A U10A U11C C13U | 1.06 |
| U7C U11A | 1.38 |
| U7C U11C | 1.16 |
| U7C U11G | 1.2 |
| U7G G9A U10A U11G | 2.05 |
| U7G G9A U10A U11C | 1.09 |
| U7G G9A U10A U11A | 2.42 |

— the RNAGym collection of RNA variant scans (doi:10.1021/acssynbio.7b00057)
